These results are taken from paper PMC7722742, “Structure of native glycolipoprotein filaments in honeybee royal jelly” (Nature Communications, 2020).

The chains are these.
T1: MRJP1_4/apisimin4 hetero-octamer (native royal jelly filament) (Apis mellifera, UniProt O18330+Q8ISL8)
T1 construct: gene Mrjp1; native, purified from commercial royal jelly (Bio-Gelee Royale) at pH 4.0; N-glycosylated (Asn28, Asn144, Asn177); signal peptides removed; N-termini NILRGE (MRJP1) and KTSISV (apisimin); model residues 20-431 of MRJP1 and 33-76 of apisimin; 4:4 hetero-octamers stacked into helical filaments
T1 sequence (O18330 20-432): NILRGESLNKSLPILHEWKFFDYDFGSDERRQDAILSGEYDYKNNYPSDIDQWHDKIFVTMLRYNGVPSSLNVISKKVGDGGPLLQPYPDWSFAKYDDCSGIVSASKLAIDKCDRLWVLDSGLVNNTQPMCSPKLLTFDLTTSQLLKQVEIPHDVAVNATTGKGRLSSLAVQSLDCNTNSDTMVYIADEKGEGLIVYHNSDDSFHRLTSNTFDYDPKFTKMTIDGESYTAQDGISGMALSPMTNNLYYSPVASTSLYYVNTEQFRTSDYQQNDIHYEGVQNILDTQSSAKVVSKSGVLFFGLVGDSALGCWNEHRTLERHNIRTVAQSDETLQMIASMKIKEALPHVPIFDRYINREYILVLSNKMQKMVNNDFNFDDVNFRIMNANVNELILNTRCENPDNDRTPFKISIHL
T1 sequence (Q8ISL8 25-78): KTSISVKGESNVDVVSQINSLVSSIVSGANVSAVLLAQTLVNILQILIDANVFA

B1: apisimin (natural protein, Apis mellifera, UniProt Q8ISL8 25-78, looked up)
chain: T1 sequence (Q8ISL8 25-78)
notes: apisimin, small (5 kDa) royal jelly protein, honeybee Apis mellifera, native; the final model holds residues 33-76; Native protein, co-purified with MRJP1 in the filaments; also called apimisin; source: purified from commercially available royal jelly as RJ filaments (ammonium sulfate precipitation, SEC at pH 4.0)
B2: major royal jelly protein 1 (natural protein, Apis mellifera, UniProt O18330 20-432, looked up)
chain: T1 sequence (O18330 20-432)
modifications: N-linked glycans at Asn28, Asn144 and Asn177 (modelled: one NAG at Asn28, two NAG at Asn144, two NAG plus a BMA at Asn177)
notes: major royal jelly protein 1 (MRJP1), honeybee Apis mellifera, native glycoprotein from royal jelly; the final model holds residues 20-431; Native protein; in the filament it stands with apisimin, 24-methylenecholesterol and further unassigned lipids; also called MRJP1; MRPJ1; source: purified from commercially available royal jelly as RJ filaments (ammonium sulfate precipitation, SEC at pH 4.0)

The target in data set [1] is T1, MRJP1_4/apisimin4 hetero-octamer (native royal jelly filament). Briefly: cryo-EM helical reconstruction, […] A. It is filed as binding. The settings on record: pH 4.0; native co-purified lipid, 8 per MRJP1_4/apisimin4 unit; built starting from crystal structure PDB 5yyl.
Data set [2] deals with B2. Briefly: cryo-EM structure; real-space helical reconstruction of native RJ filaments purified at pH 4.0 (10 mM formic acid-NaOH pH 4.0, 150 mM NaCl), graphene oxide-coated grids, 3.5 Å. The settings on record: both partners purified.
Data set [3] deals with the molecule itself. The data set is described as above.
For the data set “apisimin”, the target named is B1. The data set can be described thus: quantitative Edman sequencing; purified RJ filaments (SEC fractions above 500 kDa, pH 4.0); six degradation cycles; molar ratio of the MRJP1 and apisimin residues. To be noted: both partners purified.

As for `C=C(CC[C@@H](C)[C@H]1CC[C@H]2[C@@H]3CC=C4C[C@@H](O)CC[C@]4(C)[C@H]3CC[C@]12C)C(C)C` [24-methylenecholesterol], in data set [1], the “cryo-EM helical reconstruction, 3.5 A” value is “Apisimin is colored in red, 24-methylenecholesterol in blue, and N-glycans in silver”.

As for B1, the binding result in data set [2] and in data set [3] was “binds” each time.

For B2, the binding result in data set [3] is “binds”. In the data set with apisimin, the “stoichiometry N” value is 1.15 ± 0.32 molar ratio MRJP1/apisimin.
